In publication PMC4227774, “RppH-dependent pyrophosphohydrolysis of mRNAs is regulated by direct interaction with DapF in Escherichia coli” (Nucleic Acids Research, 2014):
Where a chain is given by its changes, count along the chain named.

T1: His-RppH co-expressed with DapF from pDuet-RD (E. coli, UniProt P0A776 1-176)
T1 construct: RppH (NudH), RNA pyrophosphohydrolase, E. coli; source: E. coli ER2566 harboring pDuet-RD (from the pET-duet vector), in crude extract
T1 sequence (looked up): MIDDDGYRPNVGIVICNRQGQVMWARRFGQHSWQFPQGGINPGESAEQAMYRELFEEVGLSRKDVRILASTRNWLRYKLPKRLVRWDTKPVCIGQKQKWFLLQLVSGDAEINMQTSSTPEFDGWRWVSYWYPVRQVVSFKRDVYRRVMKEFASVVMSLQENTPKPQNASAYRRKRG

T2: His6-RppH (6His-tagged form of RppH, RNA pyrophosphohydrolase) (E. coli, UniProt P0A776 1-176)
T2 construct: RppH (NudH), RNA pyrophosphohydrolase, E. coli; rppH gene amplified from MG1655 genomic DNA with primers at the ATG start codon and 20 bp downstream of the TAA stop codon; also called His-RppH; His-tagged RppH
T2 sequence (looked up): T1 sequence (looked up)

T3: DapF(C73&217A) (E. coli, UniProt P0A6K1 1-274, C73&217A | C73&217A)
T3 construct: DapF, diaminopimelate epimerase, E. coli; the two catalytic cysteines C73 and C217 substituted to alanine; The methods list His-DapF(C73&217A) among the purified proteins; results and legends call it DapF(C73&217A); also called His-DapF(C73&217A); mutant DapF
T3 sequence (looked up): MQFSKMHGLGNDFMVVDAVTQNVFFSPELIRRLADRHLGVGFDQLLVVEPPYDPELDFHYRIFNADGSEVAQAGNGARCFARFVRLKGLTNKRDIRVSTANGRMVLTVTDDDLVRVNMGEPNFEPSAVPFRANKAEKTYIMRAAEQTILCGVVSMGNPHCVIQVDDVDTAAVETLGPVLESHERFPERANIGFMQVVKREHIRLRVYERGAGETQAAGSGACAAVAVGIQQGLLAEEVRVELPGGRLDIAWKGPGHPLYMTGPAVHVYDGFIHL

B1: DapF co-expressed with His-RppH from pDuet-RD (enzyme, E. coli, UniProt P0A6K1 1-274, looked up)
chain: T3 sequence (looked up) with A73C, A217C
notes: DapF, diaminopimelate epimerase, E. coli; source: E. coli ER2566 harboring pDuet-RD (from the pET-duet vector), in crude extract
B2: DapF, diaminopimelate (DAP) epimerase, purified (enzyme, E. coli, UniProt P0A6K1 1-274, looked up)
chain: T3 sequence (looked up) with A73C, A217C
notes: DapF, diaminopimelate epimerase, E. coli; The text sets 'purified DapF' (untagged) against His-DapF in the pull-downs; also called purified DapF; untagged DapF; source: purified
B3: RppH, RNA pyrophosphohydrolase, purified (enzyme, E. coli, UniProt P0A776 1-176, looked up)
chain: T1 sequence (looked up)
notes: RppH (NudH), RNA pyrophosphohydrolase, E. coli; Named only 'RppH' in gel filtration, SPR and the activity assays; The methods describe only the purification of His-RppH, so this may be the same protein as m1; also called purified RppH; NudH; source: purified

Legend:
[1] = target: T1, His-RppH co-expressed with DapF from …; assay: pull-down; DapF and His-RppH co-expressed from pDuet-RD in E. coli ER2566; crude extract loaded onto a TALON metal affinity column; SDS-PAGE; conditions: partners not purified
[2] = target: T2, His6-RppH (6His-tagged form of RppH, …); assay: pull-down; purified DapF mixed with varying amounts of His-RppH or the control protein His-enzyme IIA^Ntr on the metal affinity resin; band intensities on gel; conditions: both partners purified
[3] = target: B3; assay: SEC; Superose 12 10/300 GL, 50 mM Tris-HCl pH 8.0, 100 mM NaCl, room temperature, 0.5 ml/min; 50 μg RppH, 400 μg DapF (or 100 μg DapF(C73&217A)) or both in 250 μl, incubated 10 min on ice; fractions on SDS-PAGE; conditions: both partners purified
[4] = target: the molecule itself; assay: as above
[5] = target: B2; assay: SPR; BIAcore 3000; RppH amine-coupled to a CM5 chip (0.7 ng/mm^2); DapF at 20, 50 and 70 μg/ml flowed at 10 μl/min; 10 mM HEPES pH 7.2, 150 mM NaCl, 10 mM KCl, 1 mM MgCl2, 0.5 mM EDTA; fit assumes a dimer–dimer interaction; conditions: both partners purified
DapF(C73&217A) = target: T3, DapF(C73&217A); assay: SEC; Superose 12 10/300 GL, 50 mM Tris-HCl pH 8.0, 100 mM NaCl, room temperature, 0.5 ml/min; 50 μg RppH, 400 μg DapF (or 100 μg DapF(C73&217A)) or both in 250 μl, incubated 10 min on ice; fractions on SDS-PAGE; conditions: both partners purified

B1
stoichiometry N [1]: 1 DapF:RppH

B2
stoichiometry N [2]: 1 DapF:RppH
stoichiometry N [3]: 1 DapF:RppH (2:2)
stoichiometry N [4]: 2

B3
Kd [5]: ~5.2 nM
binding result (DapF(C73&217A)): binds
